Experimental data from paper PMC8538103.

How the values were obtained:
[1] = biological target: neuraminidase from A/BrevigMission/1/1918 (H1N1), residues 83 to 468 of the ectodomain, construct pTT5-NA (+SS −TET) (influenza A virus A/BrevigMission/1/1918 (H1N1)); experiment: dynamic light scattering; in solution; data not shown
[2] = biological target: neuraminidase from A/BrevigMission/1/1918 (H1N1), residues 83 to 468 of the ectodomain, construct pTT5-NA (+SS −TET) (influenza A virus A/BrevigMission/1/1918 (H1N1)); experiment: crystal structure

How did the stoichiometry N [1] turn out when “neuraminidase from A/BrevigMission/1/1918 (H1N1), residues 83 to 468 of the ectodomain, construct pTT5-NA (+SS −TET) (domain or fragment)” was run?
Its stoichiometry N is 4.

What about the stoichiometry N [2] of the same substance?
The stoichiometry N was 4.
